± gives the standard deviation.
Assay: protein stability index of a GFP-peptide fusion (GPS, HEK-293T) (PSI 1-6); higher = more stable
Details: c terminus: a fixed tail appended
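Also: 24-mer peptide tiles fused after GFP, lentivirally expressed, FACS-sorted into six equal bins by GFP/DsRed ratio, decoded by Illumina sequencing, PSI is the read-weighted mean bin number.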

Sequence: VVAMARKLQDVFEMRFAKMPDEPV [BRD3]
- protein stability index (treatment: DMSO): 2.49 ± 0.29
- protein stability index (treatment: MLN4924 1 uM, 8 h): 2.64 ± 0.35

Sequence: CLHHICTNYNNVCRKFPRDMKAMS [RHOBTB2]
- protein stability index (treatment: DMSO): 2.26 ± 0.18
- protein stability index (treatment: MLN4924 1 uM, 8 h): 2.42 ± 0.067

Sequence: QVAKREREAATKHSKASLPTGEGS [CHCHD6]
- protein stability index (treatment: DMSO): 5.32 ± 0.47
- protein stability index (treatment: MLN4924 1 uM, 8 h): 5.26 ± 0.33

Sequence: EQIKTRTEELIVQTKQVYDAVGML [NLN]
- protein stability index (treatment: DMSO): 3.68 ± 0.25
- protein stability index (treatment: MLN4924 1 uM, 8 h): 3.88 ± 0.41

Sequence: PGQHLSDYSQLNESTTKESSEASQ [FBXO34]
- protein stability index (treatment: DMSO): 5.47 ± 0.28
- protein stability index (treatment: MLN4924 1 uM, 8 h): 5.6 ± 0.24

Sequence: AWGPGTLAAAPEGLEDAGLDPHFV [TEX19]
- protein stability index (treatment: DMSO): 4.31 ± 0.25
- protein stability index (treatment: MLN4924 1 uM, 8 h): 4.37 ± 0.26

Sequence: NLIEKSASLDNGGCALTTFSVLEG [SOAT1]
- protein stability index (treatment: DMSO): 3.28 ± 0.37
- protein stability index (treatment: MLN4924 1 uM, 8 h): 3.32 ± 0.32

Sequence: EIDTQGRHLAHSMLQRAIAYQHSG [C10orf62]
- protein stability index (treatment: DMSO): 2.91 ± 0.24
- protein stability index (treatment: MLN4924 1 uM, 8 h): 3.15 ± 0.28

Sequence: YRQHCTLELGSYIKDLSVVHSDLS [CTDNEP1]
- protein stability index (treatment: DMSO): 2.4 ± 0.41
- protein stability index (treatment: MLN4924 1 uM, 8 h): 2.34 ± 0.25

Sequence: VCLEYLKEPVIIECGHNFCKACIT [TRIM39]
- protein stability index (treatment: DMSO): 2.38 ± 0.55
- protein stability index (treatment: MLN4924 1 uM, 8 h): 2.28 ± 0.29

Sequence: RPARSTLDELLGRGMATKLLARPG [FBF1]
- protein stability index (treatment: DMSO): 2.61 ± 0.19
- protein stability index (treatment: MLN4924 1 uM, 8 h): 2.63 ± 0.17

Sequence: DPFVCRLRHLSPTPSEEHMKNKNN [OR4A15]
- protein stability index (treatment: DMSO): 4.73 ± 0.11
- protein stability index (treatment: MLN4924 1 uM, 8 h): 4.66 ± 0.1

Sequence: VSQQTGSPGKQPGENSDCHRDSSQ [ZNF8]
- protein stability index (treatment: DMSO): 5.31 ± 0.47
- protein stability index (treatment: MLN4924 1 uM, 8 h): 5.47 ± 0.21

Sequence: MDHIRIFQEQVEKLKALHVDSAEY [NR2F2]
- protein stability index (treatment: DMSO): 3.07 ± 0.44
- protein stability index (treatment: MLN4924 1 uM, 8 h): 3.2 ± 0.36

Sequence: VPISVTGIAQVKIQGQNKEMLAAA [FLOT1]
- protein stability index (treatment: DMSO): 3.52 ± 0.27
- protein stability index (treatment: MLN4924 1 uM, 8 h): 3.61 ± 0.13

Sequence: ITMMALKVLGELNILPNTQKVTCF [TENT5D]
- protein stability index (treatment: DMSO): 2.86 ± 0.59
- protein stability index (treatment: MLN4924 1 uM, 8 h): 2.31 ± 0.75

Sequence: VIWDFLTRGIAKIISAHIHPVCSL [RBBP5]
- protein stability index (treatment: DMSO): 3.31 ± 0.46
- protein stability index (treatment: MLN4924 1 uM, 8 h): 3.3 ± 0.35

Sequence: SNHVDDFTTFRGTELSFLVTTHQP [EDNRA]
- protein stability index (treatment: DMSO): 2.61 ± 0.4
- protein stability index (treatment: MLN4924 1 uM, 8 h): 2.8 ± 0.4

Sequence: IGWKTVRMYPFQIHSIALSTFASL [CDS2]
- protein stability index (treatment: DMSO): 2.69 ± 0.65
- protein stability index (treatment: MLN4924 1 uM, 8 h): 2.65 ± 0.45

Sequence: KSDKALMMLFNDGTFQVNFYHDHT [PLK2]
- protein stability index (treatment: DMSO): 1.86 ± 0.32
- protein stability index (treatment: MLN4924 1 uM, 8 h): 2.25 ± 0.14

Sequence: PSWAALNSSTWGSLKQALKGLSVE [SNX8]
- protein stability index (treatment: DMSO): 2.94 ± 0.17
- protein stability index (treatment: MLN4924 1 uM, 8 h): 3.46 ± 0.29

Sequence: CNDLFKVNPFQLQQFRADPSTASL [TIAF1]
- protein stability index (treatment: DMSO): 2.71 ± 0.063
- protein stability index (treatment: MLN4924 1 uM, 8 h): 2.78 ± 0.18

Sequence: MASFPPRVNEKEIVRLRTIGELLA [WSB1]
- protein stability index (treatment: DMSO): 2.18 ± 0.3
- protein stability index (treatment: MLN4924 1 uM, 8 h): 2.14 ± 0.13

Sequence: CDEARNHYGGVVSLIPLILDLMKE [SPACA9]
- protein stability index (treatment: DMSO): 2.3 ± 0.29
- protein stability index (treatment: MLN4924 1 uM, 8 h): 2.36 ± 0.23

Sequence: SWEPLSGPSTPSPVAAQFTSEGTT [FCHO1]
- protein stability index (treatment: DMSO): 4.61 ± 0.27
- protein stability index (treatment: MLN4924 1 uM, 8 h): 4.74 ± 0.22

Sequence: GDKLKFLSMLLTLKCEMNQMSGEP [ACSBG2]
- protein stability index (treatment: DMSO): 2.38 ± 1.1
- protein stability index (treatment: MLN4924 1 uM, 8 h): 2.56 ± 1

Sequence: LQDGRRKVHYLFPDGKEMAEEYDE [DPCD]
- protein stability index (treatment: DMSO): 4.7 ± 0.064
- protein stability index (treatment: MLN4924 1 uM, 8 h): 4.72 ± 0.37

Sequence: MCLFLQSLRQKQPERLCSGPGIVG [GMPPB]
- protein stability index (treatment: DMSO): 2.27 ± 0.41
- protein stability index (treatment: MLN4924 1 uM, 8 h): 2.17 ± 0.46

Sequence: VQIYNLSQNIQEDDLQQLQLFTEY [ATL3]
- protein stability index (treatment: DMSO): 2.44 ± 0.35
- protein stability index (treatment: MLN4924 1 uM, 8 h): 2.28 ± 0.27

Sequence: LDFLHSANFSLGSINQRLNKRERS [RNF180]
- protein stability index (treatment: DMSO): 3.69 ± 0.24
- protein stability index (treatment: MLN4924 1 uM, 8 h): 3.86 ± 0.4

Sequence: DERRDAEERASLAGNRNSMVIHIP [KCNK9]
- protein stability index (treatment: DMSO): 4.24 ± 0.08
- protein stability index (treatment: MLN4924 1 uM, 8 h): 4.51 ± 0.086

Sequence: MMKAKGDLEMKEEEEISETGELVG [ZBED2]
- protein stability index (treatment: DMSO): 5.59 ± 0.27
- protein stability index (treatment: MLN4924 1 uM, 8 h): 5.35 ± 0.26

Sequence: TVRGATGIFPLSFVKILKDFPEED [NCF4]
- protein stability index (treatment: DMSO): 3.43 ± 0.51
- protein stability index (treatment: MLN4924 1 uM, 8 h): 3.57 ± 0.4

Sequence: LSPEVLNKQGHGCESDIWALGCVM [PLK2]
- protein stability index (treatment: DMSO): 2.09 ± 0.15
- protein stability index (treatment: MLN4924 1 uM, 8 h): 2.14 ± 0.29

Sequence: RSIPDTQLEQVIESQKANQCAVLI [ACSBG2]
- protein stability index (treatment: DMSO): 3.54 ± 0.14
- protein stability index (treatment: MLN4924 1 uM, 8 h): 3.67 ± 0.47

Sequence: QQAEKILKSMDKNGTMTIDWNEWR [SLC25A25]
- protein stability index (treatment: DMSO): 3.36 ± 0.47
- protein stability index (treatment: MLN4924 1 uM, 8 h): 3.56 ± 0.39

Sequence: YRERRDSDTYRCEERSPSFGEDYY [CLK3]
- protein stability index (treatment: DMSO): 4.37 ± 0.2
- protein stability index (treatment: MLN4924 1 uM, 8 h): 4.29 ± 0.21

Sequence: KILLDAQHESGQSSSRGSSHCDSP [BNIP3L]
- protein stability index (treatment: DMSO): 4.91 ± 0.18
- protein stability index (treatment: MLN4924 1 uM, 8 h): 4.83 ± 0.1

Sequence: TPSSYAPSHPPRPLLPLDMQGNQI [ZBTB22]
- protein stability index (treatment: DMSO): 4.14 ± 0.1
- protein stability index (treatment: MLN4924 1 uM, 8 h): 4.3 ± 0.14

Sequence: LTCDSSTSSSDDDEEVSGSSKTIT [C18orf25]
- protein stability index (treatment: DMSO): 5.4 ± 0.26
- protein stability index (treatment: MLN4924 1 uM, 8 h): 5.46 ± 0.21

Sequence: VHYMIHEPEPHILLFRRPLPKKPK [CKS1B]
- protein stability index (treatment: DMSO): 2.39 ± 0.23
- protein stability index (treatment: MLN4924 1 uM, 8 h): 2.57 ± 0.35

Sequence: NNLTDRIVVIPGKVEEVSLPEQVD [CARM1]
- protein stability index (treatment: DMSO): 5.1 ± 0.13
- protein stability index (treatment: MLN4924 1 uM, 8 h): 5.27 ± 0.23

Sequence: GQRDRKAEHWKHKKEESGRERKKN [PBXIP1]
- protein stability index (treatment: DMSO): 5.08 ± 0.12
- protein stability index (treatment: MLN4924 1 uM, 8 h): 5.4 ± 0.15

Sequence: EPLAEGAAAEFSSLLRRIKGKLFT [SLC35F2]
- protein stability index (treatment: DMSO): 2.55 ± 0.33
- protein stability index (treatment: MLN4924 1 uM, 8 h): 2.65 ± 0.096

Source: the supplement of paper PMC10567573
